From patent US20250000976A1 (NATIONAL RESEARCH COUNCIL OF CANADA, published 2025)
Changes are numbered by the printed parent chain.

T1: hBCMA-ECD-FC5VHH (human, UniProt Q02223 1-54, biotinylated in vivo ; biotinylated in vivo on the tag of the carrier part, which is not in the letters)
T1 construct: Made in HEK-293 cells, monomeric SEC fraction; The methods say about 500 RU captured on an SA chip; the results say immobilised on a CM5 chip; also called hBCMA-FC5; human BCMA-ECD; not shown: FC5 VHH carrier, any linker, and the His and biotinylation tags
T1 sequence: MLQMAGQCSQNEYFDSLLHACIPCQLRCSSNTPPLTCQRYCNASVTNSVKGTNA

B1: hBCMA-2C3 (VHH)
VHH: QVKLEESGGGLVQTGDSLRLACTISGRATDHFVMAWFRRAPGKEREYVATRVWSGGSPYYLDSAKGRFAIAIDNAKNTAYLQMNNLKPEDTAVYYCAATKDIMSRSYDYWGLGTQVTVSS
modifications: single biotin on the C-terminal AviTag
notes: Variant of E7 with the same CDRs; also called VHH #2; not shown: C-terminal His tag and AviTag biotinylation signal from pMRO vector
B2: hBCMA-H1 (VHH)
VHH: QVQLVESGGGLVQPGGSLRLSCAASGSGFGTHVMGWYRQAPGKPRELVAAISSAGSTFYRDSVKGRFTVSRDNAKNTMYLQMDRLKPEDTAVYYCNGAPWADEPVKVWNWGQGTQVTVSS
modifications: single biotin on the C-terminal AviTag
notes: not shown: C-terminal His tag and AviTag biotinylation signal from pMRO vector
B3: hBCMA-2F10 (VHH)
VHH: QVQLVESGGGLVQSGNSLRLSCSISGHTTKNFVMAWFRRAPGKERAIVATRVWSGGSPWYSESAKGRFTISIDDARNTAYLQMNNLKPEDTAVYYCAATKDIMSRGYVYWGLGTQVTVSS
modifications: single biotin on the C-terminal AviTag
notes: as for B2
B4: hBCMA-3F2 (VHH)
VHH: QVQLVESGGRLVQTGDSLRLTCEISGHTSNQFVLAWFRRPPGKEREVVATRFWGGGSPYYSDSVRGRFAIAIDDAKNTAYLQMSSLKPEDTAVYYCAATKDILSRGYDYWGQGTQVTVSS
modifications: single biotin on the C-terminal AviTag
notes: as for B2
B5: hBCMA-B5 (VHH)
VHH: QVKLEESGGGLVQPGGSLRLSCAASGSIFGTYNMGWYRQAPGKQRELVAAISSAGNTFYRDSVKGRFTVSRDNAKNTVYLQMDRLKYEDTAVYNCNGAPWADAEVKVYNWGQGTQVTVSS
modifications: single biotin on the C-terminal AviTag
notes: as for B2
B6: hBCMA-F2 (VHH)
VHH: QVKLEESGGGLVKPGGSLRLSCGASGNSFGAYNMGWYRQAPGKQRELVAAISSTGNTFYRDSVRGRFTVSRDNAKSTMSLQMERLKPEDTAVYLCNGAPWGDDPVKVWSWGQGTQVTVSS
modifications: single biotin on the C-terminal AviTag
notes: as for B2
B7: hBCMA-VcMRo1(V1/V6) (VHH)
VHH: EVQLQQSGGGLVQAGESLTISCAVFGDPITVATMGWYRQAPGKLRELVAAISSAGSTFYRDSVRGRFTVSRDNAKSTMYLQMDRLKVEDTAVYSCNGAPWGDAPVKVWTWGEGTQVTVSS
modifications: single biotin on the C-terminal AviTag
notes: as for B2
B8: hBCMA-D2 (VHH)
VHH: B5 VHH with K3Q, E5V, V78M, A101G, E104L, Y108W
modifications: single biotin on the C-terminal AviTag
notes: as for B2

biological target: T1, hBCMA-ECD-FC5VHH; experiment: SPR

Binder	binding result
B1	binds

biological target: T1, hBCMA-ECD-FC5VHH; experiment: SPR (Biacore T200), VHH 20-500 nM over BCMA-ECD surface, 25 C
Method: For surface Plasmon resonance, 15 selected VHHs were passed though size exclusion columns, Superdex 75 (GE Healthcare), respectively, in 10 mM HEPES, pH 7.4, containing 150 mM NaCl, 3 mM EDTA, monomeric sdAb fractions were collected and protein concentrations were determined by measuring absorbance at 280 nm (A280). Analysis were performed with Biacore T200 instrument (GE Healthcare). All measurements were carried out at 25° C. in 10 mM HEPES, pH 7.4, containing 150 mM NaCl, 3 mM EDTA and 0.005% surfactant P20 (GE Healthcare). Approximately 500 RUs of the recombinant monomeric BCMA-ECD (obtained after SEC purification of the BCMA-ECD-FC5VHH) were captured on SA sensor chip (GE Healthcare) at a flow rate of 5 uL/min. Various concentration of the monomeric VHHs (20-500 nM) were injected over BCMA-ECD surface, respectively using an SA surface as a reference at a flow rate of 40 μL/min. Surfaces were generated by washing with running buffer. Data were analysed with BIAevaluation 4.1 software.
The monomeric fraction of all 15 VHHs were used for SPR experiment where the human BCMA-ECD or mouse BCMA was immobilized onto the CM5 dextran chip and various VHH concentration (20-500 nM) were passed over the sensor chip.

Binder	Kd [nM]	koff [s⁻¹]	kon [M⁻¹ s⁻¹]
B2	0.152	0.000462	3.05e+06
B3	0.216	0.00091	4.22e+06
B4	0.631	0.00253	4.01e+06
B5	0.22	0.00237	1.08e+07
B6	0.0683	0.000349	5.11e+06
B7	0.303	0.000262	867000
B8	0.403	0.000978	2.42e+06
